Assay results from patent publication US8889621B2, “Inhibiting binding of FGF23 to the binary FGFR-Klotho complex for the treatment of hypophosphatemia” (New York University, priority 2009, dated 2014).
Entries after “also recorded” stand apart in the source; their conditions may differ.

Assays:
[1] = test system: binary FGFR-Klotho complex; assay: Pull-down / co-precipitation of FGF23 proteins with FGFR-Klotho complex; assay type: binding; conditions: HEK293-Klotho cell lysate
Experimental: A pull-down assay may also be used to confirm the existence of a protein:protein interaction (i.e. FGF23^180-251 binding to the binary FGFR-Klotho complex). One aspect of the present invention utilizes pull-down assays. These assays involved subconfluent cultures of a HEK293 cell line ectopically expressing the FLAG-tagged membrane-spanning form of murine Klotho, which were harvested and lysed. Cell lysate was incubated with FGF23^28-251, FGF23^28-200, FGF23^28-179, FGF23^180-251, or protein sample buffer, and binary complexes of Klotho and endogenous FGFR were isolated from cell lysate using anti-FLAG M2 agarose beads. […]
In parallel, subconfluent HEK293-Klotho cells (Kurosu et al., “Regulation of Fibroblast Growth Factor-23 Signaling by Klotho,” J Biol Chem 281(10):6120-6123 (2006), which is hereby incorporated by reference in its entirety) were transfected with expression vectors for V5-tagged FGFR1c, FGFR3c, or FGFR4 (Kurosu et al., “Regulation of Fibroblast Growth Factor-23 Signaling by Klotho,” J Biol Chem 281(10):6120-6123 (2006), which is hereby incorporated by reference in its entirety) and binding of FGF23 proteins/peptides to Klotho-FGFR complexes isolated from cell lysate was analyzed. […]

[2] = test system: tyrosine phosphorylation of FRS2α and downstream activation of MAP kinase cascade; assay: Phosphorylation of FRS2α and 44/42 MAP kinase in CHO Klotho cell line; assay type: cell-based
Experimental: Subconfluent HEK293-Klotho cells (Kurosu et al., “Regulation of Fibroblast Growth Factor-23 Signaling by Klotho,” J Biol Chem 281(10):6120-6123 (2006), which is hereby incorporated by reference in its entirety) were serum starved for 16 h and then stimulated for 10 min with either FGF23^28-251 (0.33 to 10 nM) or FGF23^180-251 (0.76 to 76.3 nM). In parallel experiments, cells were stimulated with FGF23^28-251 (1 nM) alone or with FGF23^28-251 (1 nM) mixed with increasing concentrations of either FGF23^180-251 (0.76 to 76.3 nM) or FGF23^180-205 (0.1 to 10 μM). Cell stimulation with FGF2 (2.9 nM) alone or FGF2 (2.9 nM) mixed with increasing concentrations of FGF23^180-251 (0.76 to 76.3 nM) served as controls. Similarly, subconfluent cells of a CHO cell line stably expressing Klotho (Imura et al., “Secreted Klotho Protein in Sera and CSF: Implication for Post-translational Cleavage in Release of Klotho Protein from Cell Membrane,” FEBS Lett 565(1-3):143-147 (2004), which is hereby incorporated by reference in its entirety) were treated with either FGF23^28-251 (0.067 to 20 nM) or FGF23^28-200 (0.04 to 12 nM). […]

C57BL/6 mice = assay: Serum phosphate in C57BL/6 mice after IP injection; assay type: in vivo, mouse; conditions: two injections of 5 μg, healthy C57BL/6 mice
Experimental: The phosphaturic activity of […] was examined in ˜6-week old C57BL/6 mice by a published protocol (Goetz et al., “Molecular Insights into the Klotho-dependent, Endocrine Mode of Action of Fibroblast Growth Factor 19 Subfamily Members,” Mol Cell Biol 27(9):3417-3428 (2007), which is hereby incorporated by reference in its entirety). FGF23^28-251, FGF23^28-200, or vehicle were injected IP into the animals. Each mouse received two injections at 8 h intervals, of 5 μg of protein per injection. Before the first injection and 8 h after the second injection, blood was drawn by cheek-pouch bleeding and spun at 3,000×g for 10 min to obtain serum. Serum phosphate levels were determined using Phosphorus Liqui-UV reagent (Stanbio Laboratory).

binary FGFR-Klotho complex, sequence (O35082 35-1014, one chain of several): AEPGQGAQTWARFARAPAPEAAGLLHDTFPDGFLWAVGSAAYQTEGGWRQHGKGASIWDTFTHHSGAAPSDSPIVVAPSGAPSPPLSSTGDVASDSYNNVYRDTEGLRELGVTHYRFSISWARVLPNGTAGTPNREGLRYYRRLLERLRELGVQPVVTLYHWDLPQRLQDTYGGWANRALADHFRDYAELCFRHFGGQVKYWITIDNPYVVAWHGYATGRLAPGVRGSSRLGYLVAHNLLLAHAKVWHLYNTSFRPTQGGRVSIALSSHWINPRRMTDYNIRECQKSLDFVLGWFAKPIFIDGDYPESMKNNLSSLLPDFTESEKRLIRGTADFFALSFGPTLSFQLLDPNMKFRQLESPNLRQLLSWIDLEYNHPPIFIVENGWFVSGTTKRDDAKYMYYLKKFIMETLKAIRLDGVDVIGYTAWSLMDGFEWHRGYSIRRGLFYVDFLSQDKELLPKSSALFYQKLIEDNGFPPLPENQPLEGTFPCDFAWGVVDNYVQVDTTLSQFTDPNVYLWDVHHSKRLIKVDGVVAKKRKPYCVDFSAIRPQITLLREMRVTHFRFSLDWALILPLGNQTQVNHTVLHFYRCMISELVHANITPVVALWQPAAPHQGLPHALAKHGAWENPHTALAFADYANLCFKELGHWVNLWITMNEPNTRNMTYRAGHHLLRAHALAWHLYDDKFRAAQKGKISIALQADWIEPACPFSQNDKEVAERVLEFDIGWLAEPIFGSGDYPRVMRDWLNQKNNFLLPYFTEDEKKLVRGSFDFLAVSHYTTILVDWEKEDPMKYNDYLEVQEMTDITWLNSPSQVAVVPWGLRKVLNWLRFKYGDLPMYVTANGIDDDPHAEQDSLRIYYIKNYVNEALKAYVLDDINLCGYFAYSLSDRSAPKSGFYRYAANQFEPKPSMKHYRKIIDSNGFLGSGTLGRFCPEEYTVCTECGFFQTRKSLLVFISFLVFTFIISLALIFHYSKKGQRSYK

B1: FGF23^28-200: C-terminally truncated FGF23 protein (A28 to T200), lacks the last 51 C-terminal amino acids (protein)
chain: ASPLLGSSWGGLIHLYTATARNSYHLQIHKNGHVDGAPHQTIYSALMIRSEDAGFVVITGVMSRRYLCMDFRGNIFGSHYFDPENCRFQHQTLENGYDVYHSPQYHFLVSLGRAKRAFLPGMNPPPYSQFLSRRNEIPLIHFNTPIPRQHTQSAEDDSERDPLNVLKPRARMT
B1 was tested, and the “co-precipitation with the binary FGFR-Klotho complex” value [1] was “still retains the ability to co-immunoprecipitate”, the “induction of phosphorylation of FRS2α and activation of MAP kinase cascade” value [2] was “at a dose comparable to that of FGF23^28-251” and the “reduction of serum phosphate concentration (phosphaturic activity)” value (C57BL/6 mice) was “nearly as effective as the full-length ligand; also recorded: exhibits phosphaturic activity”.
